Patent US20210040177A1 (IMUNEXUS, published 2021)
Read-outs that look alike come from different tables or passages of the source.

Legend:
[1] = target: T1, B7-1-Fc (R&D Systems Cat #140-B1) (UniProt P33681 35-242); assay: BLItz bio-layer interferometry; D1.3 IgG held on immobilised lysozyme, B7-1-Fc added at Point 1, buffer at Point 2
T1 construct: Bought reagent; also called CD80; not shown: Fc part of the bought fusion
T1 sequence (looked up): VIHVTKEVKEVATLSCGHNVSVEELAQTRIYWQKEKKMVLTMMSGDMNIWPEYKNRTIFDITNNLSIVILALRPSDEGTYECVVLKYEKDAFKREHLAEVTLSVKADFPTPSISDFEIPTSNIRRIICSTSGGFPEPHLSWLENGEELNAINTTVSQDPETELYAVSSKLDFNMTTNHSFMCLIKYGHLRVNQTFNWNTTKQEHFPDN

[2] = target: T1, B7-1-Fc (R&D Systems Cat #140-B1); assay: SPR (Biacore X100); molecule captured on biotin-lysozyme, B7-1-Fc as analyte
[3] = target: T1, B7-1-Fc (R&D Systems Cat #140-B1); assay: as above; remark: listed apart in the source

B1: D1.3 anti-lysozyme antibody [D1.3 IgG] (antibody, V domains shown)
VH: EVKLQESGPGLVAPSQSLSITCTVSGFSLTGYGVNWVRQPPGKGLEWLGMIWGDGNTDYNSALKSRLSISKDNSKSQVFLKMNSLHTDDTARYYCARERDYRLDYWGQGTTVTVSS
VL: DIELTQSPASLSASVGETVTITCRASGNIHNYLAWYQQKQGKSPQLLVYYTTTLADGVPSRFSGSGSGTQYSLKINSLQPEDFGSYYCQHFWSTPRTFGGGTKLELKR
notes: Full length IgG1 kappa, expressed in Expi293 cells; parent of all IgG-VLD fusions; also called D1.3 IgG alone (full length); D1.3 antibody
[1]
  binding result: no binding

B2: D1.3 IgG-VLDx2 (HC) (bispecific antibody)
heavy: not shown
light: DIELTQSPASLSASVGETVTITCRASGNIHNYLAWYQQKQGKSPQLLVYYTTTLADGVPSRFSGSGSGTQYSLKINSLQPEDFGSYYCQHFWSTPRTFGGGTKLELKRTVAAPSVFIFPPSDEQLKSGTASVVCLLNNFYPREAKVQWKVDNALQSGNSQESVTEQDSKDSTYSLSSTLTLSKADYEKHKVYACEVTHQGLSSPVTKSFNRGEC
notes: unfused kappa light chain; also called bi-specific-D1.3 IgG-VLDx2 (HC)
[2]
  Kd: 5.44 nM
  koff: 0.0028 s⁻¹
  kon: 516000 M⁻¹ s⁻¹

B3: D1.3 Fab-VLDx1 (HC) (bispecific antibody)
heavy: EVKLQESGPGLVAPSQSLSITCTVSGFSLTGYGVNWVRQPPGKGLEWLGMIWGDGNTDYNSALKSRLSISKDNSKSQVFLKMNSLHTDDTARYYCARERDYRLDYWGQGTTVTVSSASTKGPSVFPLAPSSKSTSGGTAALGCLVKDYFPEPVTVSWNSGALTSGVHTFPAVLQSSGLYSLSSVVTVPSSSLGTQTYICNVNHKPSNTKVDKKVEPKSCSGGGGSGGGGSGGGGSGGGGSKAMHVAQPAVVLASSRGIASFVCEYASPGKYTEVRVTVLRQADSQVTEVCAATYMTGNELTFLDDSICTGTSSGNQVNLTIQGLRAMDTGLYICKVELMYPPPYYLGIGNGTQIYVIDPEPSPDSN
light: DIELTQSPASLSASVGETVTITCRASGNIHNYLAWYQQKQGKSPQLLVYYTTTLADGVPSRFSGSGSGTQYSLKINSLQPEDFGSYYCQHFWSTPRTFGGGTKLELKRTVAAPSVFIFPPSDEQLKSGTASVVCLLNNFYPREAKVQWKVDNALQSGNSQESVTEQDSKDSTYSLSSTLTLSKADYEKHKVYACEVTHQGLSSPVTKSFNRGEC
[3]
  Kd: 5.41 nM
  koff: 0.00285 s⁻¹
  kon: 526000 M⁻¹ s⁻¹

B4: D1.3 Fab-VLDx1 (LC) (bispecific antibody)
heavy: EVKLQESGPGLVAPSQSLSITCTVSGFSLTGYGVNWVRQPPGKGLEWLGMIWGDGNTDYNSALKSRLSISKDNSKSQVFLKMNSLHTDDTARYYCARERDYRLDYWGQGTTVTVSSASTKGPSVFPLAPSSKSTSGGTAALGCLVKDYFPEPVTVSWNSGALTSGVHTFPAVLQSSGLYSLSSVVTVPSSSLGTQTYICNVNHKPSNTKVDKRVEPKSCAAAGLGGHHHHHHGAAEQKLISEEDL
light: DIELTQSPASLSASVGETVTITCRASGNIHNYLAWYQQKQGKSPQLLVYYTTTLADGVPSRFSGSGSGTQYSLKINSLQPEDFGSYYCQHFWSTPRTFGGGTKLELKRTVAAPSVFIFPPSDEQLKSGTASVVCLLNNFYPREAKVQWKVDNALQSGNSQESVTEQDSKDSTYSLSSTLTLSKADYEKHKVYACEVTHQGLSSPVTKSFNRGECSGGGGSGGGGSGGGGSGGGGSKAMHVAQPAVVLASSRGIASFVCEYASPGKYTEVRVTVLRQADSQVTEVCAATYMTGNELTFLDDSICTGTSSGNQVNLTIQGLRAMDTGLYICKVELMYPPPYYLGIGNGTQIYVIDPEPSPDSN
notes: also called D1.3 VLDx1 (LC); D1.3 Fab-VLDx1 (CL)
[3]
  Kd: 13.6 nM
  koff: 0.00296 s⁻¹
  kon: 218000 M⁻¹ s⁻¹

B5: D1.3 Fab-VLDx2 (HC+LC) (bispecific antibody)
heavy: EVKLQESGPGLVAPSQSLSITCTVSGFSLTGYGVNWVRQPPGKGLEWLGMIWGDGNTDYNSALKSRLSISKDNSKSQVFLKMNSLHTDDTARYYCARERDYRLDYWGQGTTVTVSSASTKGPSVFPLAPSSKSTSGGTAALGCLVKDYFPEPVTVSWNSGALTSGVHTFPAVLQSSGLYSLSSVVTVPSSSLGTQTYICNVNHKPSNTKVDKKVEPKSCSGGGGSGGGGSGGGGSGGGGSKAMHVAQPAVVLASSRGIASFVCEYASPGKYTEVRVTVLRQADSQVTEVCAATYMTGNELTFLDDSICTGTSSGNQVNLTIQGLRAMDTGLYICKVELMYPPPYYLGIGNGTQIYVIDPEPSPDSN
light: DIELTQSPASLSASVGETVTITCRASGNIHNYLAWYQQKQGKSPQLLVYYTTTLADGVPSRFSGSGSGTQYSLKINSLQPEDFGSYYCQHFWSTPRTFGGGTKLELKRTVAAPSVFIFPPSDEQLKSGTASVVCLLNNFYPREAKVQWKVDNALQSGNSQESVTEQDSKDSTYSLSSTLTLSKADYEKHKVYACEVTHQGLSSPVTKSFNRGECSGGGGSGGGGSGGGGSGGGGSKAMHVAQPAVVLASSRGIASFVCEYASPGKYTEVRVTVLRQADSQVTEVCAATYMTGNELTFLDDSICTGTSSGNQVNLTIQGLRAMDTGLYICKVELMYPPPYYLGIGNGTQIYVIDPEPSPDSN
notes: also called D1.3 VLDx2 (HC+LC); D1.3 Fab-VLDx2 (LC+HC)
[3]
  Kd: 9.73 nM
  koff: 0.00433 s⁻¹
  kon: 445000 M⁻¹ s⁻¹

B6: D1.3 IgG-VLDx2 (LC) (bispecific antibody)
heavy: not shown
light: DIELTQSPASLSASVGETVTITCRASGNIHNYLAWYQQKQGKSPQLLVYYTTTLADGVPSRFSGSGSGTQYSLKINSLQPEDFGSYYCQHFWSTPRTFGGGTKLELKRTVAAPSVFIFPPSDEQLKSGTASVVCLLNNFYPREAKVQWKVDNALQSGNSQESVTEQDSKDSTYSLSSTLTLSKADYEKHKVYACEVTHQGLSSPVTKSFNRGECSGGGGSGGGGSGGGGSGGGGSKAMHVAQPAVVLASSRGIASFVCEYASPGKYTEVRVTVLRQADSQVTEVCAATYMTGNELTFLDDSICTGTSSGNQVNLTIQGLRAMDTGLYICKVELMYPPPYYLGIGNGTQIYVIDPEPSPDSN
notes: unfused heavy chain; also called D1.3 IgG-VDLx2 (LC); bi-specific-D1.3 IgG-VLDx2 (LC)
[2]
  Kd: 24.5 nM
  koff: 0.004 s⁻¹
  kon: 163000 M⁻¹ s⁻¹

B7: D1.3 IgG-VLDx4 (HC+LC) (bispecific antibody)
heavy: not shown
light: DIELTQSPASLSASVGETVTITCRASGNIHNYLAWYQQKQGKSPQLLVYYTTTLADGVPSRFSGSGSGTQYSLKINSLQPEDFGSYYCQHFWSTPRTFGGGTKLELKRTVAAPSVFIFPPSDEQLKSGTASVVCLLNNFYPREAKVQWKVDNALQSGNSQESVTEQDSKDSTYSLSSTLTLSKADYEKHKVYACEVTHQGLSSPVTKSFNRGECSGGGGSGGGGSGGGGSGGGGSKAMHVAQPAVVLASSRGIASFVCEYASPGKYTEVRVTVLRQADSQVTEVCAATYMTGNELTFLDDSICTGTSSGNQVNLTIQGLRAMDTGLYICKVELMYPPPYYLGIGNGTQIYVIDPEPSPDSN
notes: also called IgG Imx4 (HC+LC); IgG Imx4 (HCLC)
[2]
  Kd: 5.47 nM
  koff: 0.0029 s⁻¹
  kon: 530000 M⁻¹ s⁻¹
